Assay: yeast display, Sf9 membrane polyspecificity reagent, FACS + sequencing; frameworks hold sequencing errors
Method in brief: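 Synthetic nanobody libraries on Saccharomyces cerevisiae BJ5465 were galactose-induced for 36–48 hours, stained 1 hour at 4 °C with 10% biotinylated, detergent-solubilized Sf9 membrane reagent and enriched on streptavidin microbeads. FACS then separated cells into low and high (top ~1%) gates by anti-HA (expression) and streptavidin (reagent binding) fluorescence. Genes were colony-PCR amplified, MiSeq 2 × 250 sequenced and CDR-length filtered. A clone's polyreactivity label is that of its gate of origin.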

Sequence	polyreactivity (PSR sort gate)
QVQLVESGGVLFQAGGSLSLSCAASGLTFPRYAMGWYRQAPGKESELDAAISYRGSRTYYADSVKGRFTISRDNAKNTVYLQMNSLKPEDTAVYYCNKVRPGYGVTYLVGYWGQGTQVTVSS	high polyreactivity
QVQLVESGGVLLQAGASLRLSCAASGSIIRSYAMGWYRQAPGKERELVASISRRGGSTYYADSVKGRFTISRDNPKNSVFLQMNSLNPVDTADYYCGAVTTSKFNFWGQGTQVTVSS	low polyreactivity
QVQLVESGGVLLQAGGSLRLSCAASGTIQYIKTMGWYRQAPGKERELVAAITYSGGSTYYADSVKGRFTISRDNAKNTVYLQRNSLKPVVTAVYYCAGDGYYGGYNYWGQGTQVTVSS	low polyreactivity
QVQLVESGGVLVQAGGCLRLSCAASGSIFSVNTMGWYRQAPGKERELVATIRTGDSTNYADSVKGRFTISRDNAKNTVYLQMNSLKPEDTAVYYCAAEWSSLNFEYWGQGSQVTVSS	low polyreactivity
QVQLVESGGVLVQAGGRLRLSCAASVFGRYAMGWYRQAPGKEREMVARISSSCGSTHYADSVKGRFTISRDNAKNTVYLEMNSLKPEDTAVYYCAARSYDTYWWYGYWGQGTQVTVSS	high polyreactivity
QVQLVESGGVLVQAGGSIRLSCAASGRIIYKNAMGWYRQAPGKERELVAAITSSGGSTYYADSVKGRFTISRDNAKITVYFQMNSLKPEDTAVYYCAAYAYGRFGKLNYWGQGTQVTVSS	low polyreactivity
QVQLVESGGVLVQAGGSLPLSCAASGSIFGSYAMGWSRQAPGKERELVAAIRWSGGSTRYADSVKGRFTISRDIAKNRVYLHMNSLKPEDTAVYYCAAVWRYLGYTSMDYWGQGTQVTVSS	low polyreactivity
QVQLVESGGVLVQAGGSLRFSCAASGFFFSSNAIGWYRQAPGKERELVAAISRSVGSTYYADSVKGRFTISRDNAKNTVYLQMNSLKPEDTAVYYCAARIGSYRKYRYDYWGQGTQVTVSS	high polyreactivity
QVQLVESGGVLVQAGGSLRLSCAASEIIFTFYAMAWYRQAPGKEMELVAAITSSGGRTYYADSVKGRFTISRDNAKNTVYLQMNSLKPEDTAVYYCAARLPGYVRKYDYWGQGTQVTVSW	high polyreactivity
QVQLVESGGVLVQAGGSLRLSCAASGNAMGWYRQAPGKERELVAAITRRGGSTYYADSVKGRFTISRDNAKNTVYLQINSLIPEDTAVYYCAADNPSYNLWYGYWGQGTQVTVSS	low polyreactivity
QVQLVESGGVLVQAGGSLRLSCAASGRIFPGYVMGWYRQAHGKERELVAAITRGGSTYYADSVKGRFTISRDNAKNTVYLQMNSLKPEDTAVYYCAAKHSHIHYNYWGQGTQVTVSS	low polyreactivity
QVQLVESGGVLVQAGGSLRLSCAASGRIFPSYDMGWYRQAPAKERELVDTISTRGDSTYYADSVKGRFTISRDNAKNTVYLQMNSQKPEDTAVYYCAAERPFWEYDYWGQGTQVTVSS	low polyreactivity
QVQLVESGGVLVQAGGSLRLSCAASGRIFRANTMGWYRQAPGKEMELVANISKNGGRTYYADSVKGRFTISRDNAKNTVYLQMNSLKPEDTAVYYFNAEWRGWRFLEYGSYIYQSGYWGQGTQVTVSS	high polyreactivity
QVQLVESGGVLVQAGGSLRLSCAASGRIFRYNTMGWDRQAPGKERELVATITRGSSTNYADSVKGRFTISRDNAKNTVYLQMNSLKPEDTAVYYCAASVWKWHSYLGRYSYIGYDYWGQGTQVTVSS	high polyreactivity
QVQLVESGGVLVQAGGSLRLSCAASGRIIDLNAMGWYREAPGKQRDFVAGITDGGSTYYADSVKGRFTISRDNAKNTVYLQMNSLKPEDTAVDYCAADVYDYLSEFQAFVEEAGYYWGQGTQVTVSS	low polyreactivity
QVQLVESGGVLVQAGGSLRLSCAASGRTFHDYAMGWYRQAPGKERELVASISSGGSTYYADSVKGRFTISRDNAKNTDYLQMNSLKPEDTAVYYCAAYYYYTLYYRYDYWGQGTQVNVSS	low polyreactivity
QVQLVESGGVLVQAGGSLRLSCAASGSIFDKAMGWSRQAPGKERELVSAITSGGITNYADSVKGRFTISRDNAKNTVYLQMNRLKPEDCAVYYCNTLSPTQTKYDYWGQGTQVSVSS	low polyreactivity
QVQLVESGGVLVQAGGSLRLSCAASGSIFFYYAMGWYRQAPGKERELVAAITFTGGSTYYADSVKGRFTISRDNAKNTVYLQMKSLKPEDTAVYYCAADWYYGDEYEYWGQGTQVTVSS	high polyreactivity
QVQLVESGGVLVQAGGSLRLSCAASGSIFNYYAMGWYRQAPGKERELVAGITTSGGSTYYADSVKARFTISRDNEKNSVYLQMNSLTPEDTAVYYCAAYDYISSTYFLDDYWGQGTQVTVSS	low polyreactivity
QVQLVESGGVLVQAGGSLRLSCAASGSIFSAYVMGWYRQAPGKERELVAAINRGGNTYYADSVKGRFTISRDNAKNTVYLQMNSLKPEDTAVYYCNAQWYYLRYRYDYWGQGTQVTVSS	high polyreactivity
QVQLVESGGVLVQAGGSLRLSCAASGSTFVTNAMGWYRQAPGKEREFVAAISNSSGSTYYADSVKGRFTISRDNAKNTVYLQMNSLKPEDTAVYYCNATPDDWLQEDYWGQGTQVTVSS	low polyreactivity
QVQLVESGGVLVQAGGSLRLSCAASGSTFVYNAMGWYRQAPGKERELVARISWSVTDTYYADSVKGRFTISRDNAKNTVYLQMNSLKPEDTAVYYCNTDVTYSHLVFGYDYWGQGTQVTVSS	low polyreactivity

Sequence	polyreactivity (PSR sort gate)
QVQLVESGGVLVQAGGSLRLSCAASGSTFWLYAMGWNRQAPRKERELVAAITRSGGRTNYADSVKGRFTISRDNAKNTVYLQMNSLKPEDTAVYYCAAEYLGVSYNNWAYDFWGQGTQVTVSS	low polyreactivity
QVQLVESGGVLVQAGGSLRLSCAASGSTFYGYAMGWYRQAPAKERELVAAITRSGGSTYYADSVKGRFTISRDNAKNTVYLQMNSLKPEDTAVYYCARQDRDTYYHRYYYGGQGTQVTVSS	high polyreactivity
QVQLVESGGVLVQAGGSLRLSCAASGSTSDCYDMGWYRQAPGKEWELVAAISTGDGITYYADSVKGRFTISRDNAKNTVYLHMNRLKPEDTAVYYCAAEVELSGGSDYWGQGTQVTVSS	low polyreactivity
QVQLVESGGVLVQAGGSLRLSCASSGSIFYIYGMGWSRQAPWKERELVARISSGDRTNYADSVKGRFTISRDNAKNRVYLQMNSRNPDDTAVYYCAAKKRKIAGVGGDYWGQGTQVTVSS	high polyreactivity
QVQLVESGGWLDQAGGSLRLSCAASGRTLGYYAMGWYRQAPGKERELVASIRYSGGSTYADSVKGRFTISRDNAKNTVYLQMNSLKPEDTAVYYCATGDSFRCYSALSRYDYWGQGTQVTVSS	high polyreactivity
QVQLVESGGWLVQAGGSLRLSCDASGITFYRNAVGWYRPAPGKERELVADITVSGGSTYYADSVKGRFTISRDNAKNTVYLQMNSLKPEDTAVYYCNAGLYQYDVWAYYIRYDYWGQGTQVTVSS	low polyreactivity
QVQLVESGLCLVQAGGSLRLSCAASGRIFRSYLMGWYRPAPGKERELVAAISNSGTRTYYADSVKGRFTISRDNAKNTVYLQKNSLKPEDTAVYYFITRRGRGSVDYDYWGQGSQVTVSS	high polyreactivity
QVQLVESGLGLVQAGGSLRLSCAASGSTFSNNAMGWYRQAPGKERELVASITRSGGSTYYADTVKGRFTISRDNAKNTVYLQMNSLKPEDTAVYYCNADGYYDYDYGEWGQGTQVTGSS	low polyreactivity
QVQLVESGLGLVQAGGSLRLSCAHSGSTLVYNDMRWYRQAPGKEREFVAAIRSNDGSTYYADSVNGRFTISRDNAKNTVYLQMNSLTPEDTAVYYCAATFSSAFAYYYWGQGTQVTVSS	low polyreactivity
QVQLVESGLGLVQAGGSLSLSCAASGIIFSWNSMGWYIEAPGKERELVAAITRGGGGTTYYADYVKGRFTISRDKAKNTVYLQMNSLKPEDTAVYYCAKAYEVRFEVDYCGQGTQVTVSS	low polyreactivity
QVQLVESGRGLDQAGGSLRLNCAASGSIFVRYAMGLNRQAPGKERELVAGITNSGGSTYYADSVKGRFTISRDNAMNTVYLQMNSLKPEDTAVYYCAADAGGWWYKYYYWGQGTQVTVSS	high polyreactivity
QVQLVESGRGLFKAGGSLRLSCAASGSIFDGNAMGWYRQAPGKERELVATMSWCGGSTYYADSVKGRFTISRDNSKNNVYLQMYSVNPEETAVYHCGKTPYRRYRYGGYTYSTYDYWGQGTQVTVSS	low polyreactivity
QVQLVESGRGLFQAGGSLRLSCAASGSTFYTNAMVWYRQAPGKEWELVATITSSGGITSYADSVKGRFTISRDNAKITVYLHMNSLKPEDTAVYYCAADFGASYDTHEYGYWGQGTQVTVSS	low polyreactivity
QVQLVESGRGLLQAGGSLRLSCAASGRIFTRYAMGWYRQAPGKERELVAAISSGGGNTYYADSVKGRFTISRYNAKNTVYLQMNILKPEDTAVYYCAALRSWRKTGGAQRYWYDYWGQGTQVTVLS	high polyreactivity
QVQLVESGRGLVLAGGSLRLSCAASGFIFLEYAMGWYRQAPGKERELVAASSSRGTRTYYADSVKGRFTISRDNAKNTGYLQMNSLKPEDTAVYYCAARSIAPTNLKTYLLDMDYWGQGTQVTVSS	high polyreactivity
QVQLVESGRGLVQAGGRLRLSCAASGFTFNRYTMGGYRQAPGKEREFVASITRSGGSTYYADSVKGRFTISRDNAKNTVYLQMNSLTPEDTAVYYCAPVYQYSSRYDHWGQGTQVTVSS	high polyreactivity
QVQLVESGRGLVQAGGSHRLSCAASGSTITYYTMGWYREAPGKERELVAAISGSGGRTYYADSVKGRFTISRDNAKNTVYLQMNSLKPEDTAVYYCAAVYQLSRYDYWGQGTQVTVSS	high polyreactivity
QVQLVESGRGLVQAGGSLRISCAASGRIFKNYAMGWYRQAPGKERELVADITWSDSDTSYADSVKGRFTITRDNAKNTVYLQMNCLKPEDTAVYYCAAETFDYADYIANGSAEYDYWGQGSQVTVSS	high polyreactivity
QVQLVESGRGLVQAGGSLRLSCAACGSIFVYNDRGCYRQAPGKERELVAAISASGGRTYSADSVKGRFTISRDNAKNTVYLQMNSLKPEDTAVYYCAKDWLWGPEYDYWGQGTQVTVSS	low polyreactivity
QVQLVESGRGLVQAGGSLRLSCAASGFIFLKFAKGWYRQAPGKERELVARITSTGGSTYYADSVKGRFTISRDNAKNTVYLQMNSLKPEDTAVYYCARDTVPSSDPWYYAWGGFEFDYWGQGTQVTVSS	low polyreactivity
QVQLVESGRGLVQAGGSLRLSCAASGFIFNLYAMGWYRQAPGKERELVAAISGGGSTYYAYSVKGRFTISRDNAKNTVYLQMISLKPEDNAVYYCAKKGGHRTYGYDSWGQGTQVTVSS	low polyreactivity
